In the supplement of paper PMC5998384:

Columns and labels:
HeLa Kyoto [1] = experiment: solubility in G1/S (NP-40 vs SDS abundance) (log2 ratio); higher = more soluble; settings: cell cycle stage: G1/S
HeLa Kyoto [2] = experiment: solubility change mitosis vs G1/S (difference of NP-40 vs SDS log2 ratios) (log2 ratio difference); higher = more soluble in mitosis
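Throughout, for solubility change mitosis vs G1/S (difference of NP-40 vs SDS log2 ratios): synchronized HeLa Kyoto cells (double thymidine block for G1/S, nocodazole release for mitosis), protein amounts in NP-40 versus SDS lysates quantified by mass spectrometry, three biological replicates.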
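Throughout, for solubility in G1/S (NP-40 vs SDS abundance): HeLa Kyoto cells arrested at G1/S by double thymidine block, proteins quantified by TMT10plex mass spectrometry in mild NP-40 versus SDS extracts, three biological replicates.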

MAKFGVHRILLLAISLTKCLESTKLLADLKKCGDLECEALINRVSAMRDYRGPDCRYLNFTKGEEISVYVKLAGEREDLWAGSKGKEFGYFPRDAVQIEEVFISEEIQMSTKESDFLCLLGVSYTFDNEDSELNGDYGENIYPYEEDKDEKSSIYESDFQIEPGFYATYESTLFEDQVPALEAPEDIGSTSESKDWEEVVVESMEQDRIPEVHVPPSSAVSGVKEWFGLGGEQAEEKAFESVIEPVQESSFRSRKIAVEDENDLEELNNGEPQTEHQQESESEIDSVPKTQSELASESEHIPKPQSTGWFGGGFTSYLGFGDEDTGLELIAEESNPPLQDFPNSISSDKEATVPCTEILTEKKDTITNDSLSLKPSWFDFGFAILGFAYAKEDKIMLDDRKNEEDGGADEHEHPLTSELDPEKEQEIETIKIIETEDQIDKKPVSEKTDESDTIPYLKKFLYNFDNPWNFQNIPKETELPFPKQILDQNNVIENEETGEFSIDNYPTDNTKVMIFKSSYSLSDMVSNIELPTRIHEEVYFEPSSSKDSDENSKPSVDTEGPALVEIDRSVENTLLNSQMVSTDNSLSSQNYISQKEDASEFQILKYLFQIDVYDFMNSAFSPIVILTERVVAALPEGMRPDSNLYGFPWELVICAAVVGFFAVLFFLWRSFRSVRSRLYVGREKKLALMLSGLIEEKSKLLEKFSLVQKEYEGYEVESSLKDASFEKEATEAQSLEATCEKLNRSNSELEDEILCLEKELKEEKSKHSEQDELMADISKRIQSLEDESKSLKSQVAEAKMTFKIFQMNEERLKIAIKDALNENSQLQESQKQLLQEAEVWKEQVSELNKQKVTFEDSKVHAEQVLNDKESHIKTLTERLLKMKDWAAMLGEDITDDDNLELEMNSESENGAYLDNPPKGALKKLIHAAKLNASLKTLEGERNQIYIQLSEVDKTKEELTEHIKNLQTEQASLQSENTHFENENQKLQQKLKVMTELYQENEMKLHRKLTVEENYRLEKEEKLSKVDEKISHATEELETYRKRAKDLEEELERTIHSYQGQIISHEKKAHDNWLAARNAERNLNDLRKENAHNRQKLTETELKFELLEKDPYALDVPNTAFGREHSPYGPSPLGWPSSETRAFLSPPTLLEGPLRLSPLLPGGGGRGSRGPGNPLDHQITNERGESSCDRLTDPHRAPSDTGSLSPPWDQDRRMMFPPPGQSYPDSALPPQRQDRFCSNSGRLSGPAELRSFNMPSLDKMDGSMPSEMESSRNDTKDDLGNLNVPDSSLPAENEATGPGFVPPPLAPIRGPLFPVDARGPFLRRGPPFPPPPPGAMFGASRDYFPPGDFPGPPPAPFAMRNVYPPRGFPPYLPPRPGFFPPPPHSEGRSEFPSGLIPPSNEPATEHPEPQQET [CTAGE5]
solubility in G1/S (log2) (HeLa Kyoto [1]): -0.0196
solubility change mitosis (log2) (HeLa Kyoto [2]): 0.181

MAKGRVAERSQLGAHHTTPVGDGAAGTRGLAAPGSRDHQKEKSWVEAGSARMSLLILVSIFLSAAFVMFLVYKNFPQLSEEERVNMKVPRDMDDAKALGKVLSKYKDTFYVQVLVAYFATYIFLQTFAIPGSIFLSILSGFLYPFPLALFLVCLCSGLGASFCYMLSYLVGRPVVYKYLTEKAVKWSQQVERHREHLINYIIFLRITPFLPNWFINITSPVINVPLKVFFIGTFLGVAPPSFVAIKAGTTLYQLTTAGEAVSWNSIFILMILAVLSILPAIFQKKLKQKFE [TMEM41B]
solubility in G1/S (log2) (HeLa Kyoto [1]): -0.0617
solubility change mitosis (log2) (HeLa Kyoto [2]): 0.0116

MALEQALQAARQGELDVLRSLHAAGLLGPSLRDPLDALPVHHAARAGKLHCLRFLVEEAALPAAARARNGATPAHDASATGHLACLQWLLSQGGCRVQDKDNSGATVLHLAARFGHPEVVNWLLHHGGGDPTAATDMGALPIHYAAAKGDFPSLRLLVEHYPEGVNAQTKNGATPLYLACQEGHLEVTQYLVQECGADPHARAHDGMTPLHAAAQMGHSPVIVWLVSCTDVSLSEQDKDGATAMHFAASRGHTKVLSWLLLHGGEISADLWGGTPLHDAAENGELECCQILVVNGAELDVRDRDGYTAADLSDFNGHSHCTRYLRTVENLSVEHRVLSRDPSAELEAKQPDSGMSSPNTTVSVQPLNFDLSSPTSTLSNYDSCSSSHSSIKGQHPPCGLSSARAADIQSYMDMLNPELGLPRGTIGKPTPPPPPPSFPPPPPPPGTQLPPPPPGYPAPKPPVGPQAADIYMQTKNKLRHVETEALKKELSSCDGHDGLRRQDSSRKPRAFSKQPSTGDYYRQLGRCPGETLAARPGMAHSEEVRARQPARAGCPRLGPAARGSLEGPSAPPQAALLPGNHVPNGCAADPKASRELPPPPPPPPPPLPEAASSPPPAPPLPLESAGPGCGQRRSSSSTGSTKSFNMMSPTGDNSELLAEIKAGKSLKPTPQSKGLTTVFSGIGQPAFQPDSPLPSVSPALSPVRSPTPPAAGFQPLLNGSLVPVPPTTPAPGVQLDVEALIPTHDEQGRPIPEWKRQVMVRKMQLKMQEEEEQRRKEEEEEARLASMPAWRRDLLRKKLEEEREQKRKEEERQKQEELRREKEQSEKLRTLGYDESKLAPWQRQVILKKGDIAKY [ESPN]
solubility in G1/S (log2) (HeLa Kyoto [1]): -0.041
solubility change mitosis (log2) (HeLa Kyoto [2]): -0.0492

MALFVRLLALALALALGPAATLAGPAKSPYQLVLQHSRLRGRQHGPNVCAVQKVIGTNRKYFTNCKQWYQRKICGKSTVISYECCPGYEKVPGEKGCPAALPLSNLYETLGVVGSTTTQLYTDRTEKLRPEMEGPGSFTIFAPSNEAWASLPAEVLDSLVSNVNIELLNALRYHMVGRRVLTDELKHGMTLTSMYQNSNIQIHHYPNGIVTVNCARLLKADHHATNGVVHLIDKVISTITNNIQQIIEIEDTFETLRAAVAASGLNTMLEGNGQYTLLAPTNEAFEKIPSETLNRILGDPEALRDLLNNHILKSAMCAEAIVAGLSVETLEGTTLEVGCSGDMLTINGKAIISNKDILATNGVIHYIDELLIPDSAKTLFELAAESDVSTAIDLFRQAGLGNHLSGSERLTLLAPLNSVFKDGTPPIDAHTRNLLRNHIIKDQLASKYLYHGQTLETLGGKKLRVFVYRNSLCIENSCIAAHDKRGRYGTLFTMDRVLTPPMGTVMDVLKGDNRFSMLVAAIQSAGLTETLNREGVYTVFAPTNEAFRALPPRERSRLLGDAKELANILKYHIGDEILVSGGIGALVRLKSLQGDKLEVSLKNNVVSVNKEPVAEPDIMATNGVVHVITNVLQPPANRPQERGDELADSALEIFKQASAFSRASQRSVRLAPVYQKLLERMKH [TGFBI]
solubility in G1/S (log2) (HeLa Kyoto [1]): -0.072
solubility change mitosis (log2) (HeLa Kyoto [2]): -0.149

MALLRRPTVSSDLENIDTGVNSKVKSHVTIRRTVLEEIGNRVTTRAAQVAKKAQNTKVPVQPTKTTNVNKQLKPTASVKPVQMEKLAPKGPSPTPEDVSMKEENLCQAFSDALLCKIEDIDNEDWENPQLCSDYVKDIYQYLRQLEVLQSINPHFLDGRDINGRMRAILVDWLVQVHSKFRLLQETLYMCVGIMDRFLQVQPVSRKKLQLVGITALLLASKYEEMFSPNIEDFVYITDNAYTSSQIREMETLILKELKFELGRPLPLHFLRRASKAGEVDVEQHTLAKYLMELTLIDYDMVHYHPSKVAAAASCLSQKVLGQGKWNLKQQYYTGYTENEVLEVMQHMAKNVVKVNENLTKFIAIKNKYASSKLLKISMIPQLNSKAVKDLASPLIGRS [CCNB2]
solubility in G1/S (log2) (HeLa Kyoto [1]): 0.241
solubility change mitosis (log2) (HeLa Kyoto [2]): 0.0941

MALRSAQGDGPTSGHWDGGAEKADFNAKRKKKVAEIHQALNSDPTDVAALRRMAISEGGLLTDEIRRKVWPKLLNVNANDPPPISGKNLRQMSKDYQQVLLDVRRSLRRFPPGMPEEQREGLQEELIDIILLILERNPQLHYYQGYHDIVVTFLLVVGERLATSLVEKLSTHHLRDFMDPTMDNTKHILNYLMPIIDQVNPELHDFMQSAEVGTIFALSWLITWFGHVLSDFRHVVRLYDFFLACHPLMPIYFAAVIVLYREQEVLDCDCDMASVHHLLSQIPQDLPYETLISRAGDLFVQFPPSELAREAAAQQQAERTAASTFKDFELASAQQRPDMVLRQRFRGLLRPEDRTKDVLTKPRTNRFVKLAVMGLTVALGAAALAVVKSALEWAPKFQLQLFP [TBC1D20]
solubility in G1/S (log2) (HeLa Kyoto [1]): -0.427
solubility change mitosis (log2) (HeLa Kyoto [2]): -0.0896
